Results reported in patent publication US20250012721A1, “FLUORESCENCE DETECTION KIT FOR ACTIVATED COMPLEMENT C1s, DETECTION METHOD USING SAME, AND USE THEREOF” (JIANGSU UNIVERSITY, priority 2022, published 2025).

Target: T1, activated C1s (Homo sapiens, UniProt P09871)
T1 construct: purchased Complement Technology
T1 sequence (P09871 16-437 limits assumed): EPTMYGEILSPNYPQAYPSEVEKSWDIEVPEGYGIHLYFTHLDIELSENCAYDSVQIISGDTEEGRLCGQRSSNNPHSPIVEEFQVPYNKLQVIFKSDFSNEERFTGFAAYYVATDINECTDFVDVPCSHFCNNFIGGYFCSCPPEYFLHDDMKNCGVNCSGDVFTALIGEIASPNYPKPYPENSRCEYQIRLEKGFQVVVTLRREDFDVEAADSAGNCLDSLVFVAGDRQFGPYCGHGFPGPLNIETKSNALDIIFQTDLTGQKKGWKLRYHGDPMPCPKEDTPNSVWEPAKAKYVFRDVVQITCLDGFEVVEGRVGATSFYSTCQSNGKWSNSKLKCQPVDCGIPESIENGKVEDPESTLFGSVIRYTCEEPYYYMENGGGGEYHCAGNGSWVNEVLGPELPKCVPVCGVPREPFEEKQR
T1 sequence (P09871 438-688 limits assumed): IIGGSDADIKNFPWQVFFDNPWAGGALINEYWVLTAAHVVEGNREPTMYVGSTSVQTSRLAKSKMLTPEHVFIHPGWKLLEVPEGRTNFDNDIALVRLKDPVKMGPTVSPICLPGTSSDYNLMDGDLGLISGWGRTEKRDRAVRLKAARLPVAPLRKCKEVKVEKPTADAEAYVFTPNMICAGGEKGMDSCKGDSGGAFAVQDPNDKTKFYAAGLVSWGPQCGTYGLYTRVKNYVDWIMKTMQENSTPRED
Test: N-carboxybenzyloxythiobenzyl ester/DTNB colorimetric detection of enzymatic activity of C1s standard
Assay type: biochemical
Conditions: for Enzymatic activity of C1s standards: conversion from Example 4
Description: In the present disclosure, the enzymatic activity of activated C1s was detected in a sample to be tested. Therefore, it was necessary to determine the enzymatic activity of a C1s standard used in the experiment and to prepare a standard curve for later C1s enzymatic activity. The enzymatic activity of the activated C1s was detected by an N-carboxybenzyloxythiobenzyl ester/5,5′-dithiobis(2-nitrobenzoic acid) colorimetric method. The method specifically included the steps as follows: • (1) Materials: 1) Analysis buffer: 50 mM Tris, 250 mM NaCl, pH=8.0; • 2) substrate: N-carboxybenzyloxythiobenzyl ester (ZKSBzl), dissolved in 10 mM dimethyl sulfoxide; and • 3) 5,5′-dithiobis(2-nitrobenzoic acid) (DTNB), dissolved in 10 mM dimethyl sulfoxide. • (2) Detection of C1s activity units: • 1. The C1s standard was diluted to 0.2 μg/mL with an assay buffer. • 2. The DNTB was added to the assay buffer at a final concentration of 200 μM, and a substrate was added to the assay buffer at a final concentration of 1,000 μM. • 3. 50 μL of 0.2 ng/μL C1s was added into a plate. • 4. 50 μL of a mixture including 1,000 μM substrate/200 μM DTNB was added to the wells to start a reaction. • 5. An absorbance at 5 min was read at 405 nm with a microplate reader. • (3) Calculation of activated C1s:
In subsequent experiments, the enzymatic activity of the C1s standard was defined in this way.

B1: C1s standard: humanized or recombinant C1s standard; activated C1s used as calibrator (protein)
chain 1: EPTMYGEILSPNYPQAYPSEVEKSWDIEVPEGYGIHLYFTHLDIELSENCAYDSVQIISGDTEEGRLCGQRSSNNPHSPIVEEFQVPYNKLQVIFKSDFSNEERFTGFAAYYVATDINECTDFVDVPCSHFCNNFIGGYFCSCPPEYFLHDDMKNCGVNCSGDVFTALIGEIASPNYPKPYPENSRCEYQIRLEKGFQVVVTLRREDFDVEAADSAGNCLDSLVFVAGDRQFGPYCGHGFPGPLNIETKSNALDIIFQTDLTGQKKGWKLRYHGDPMPCPKEDTPNSVWEPAKAKYVFRDVVQITCLDGFEVVEGRVGATSFYSTCQSNGKWSNSKLKCQPVDCGIPESIENGKVEDPESTLFGSVIRYTCEEPYYYMENGGGGEYHCAGNGSWVNEVLGPELPKCVPVCGVPREPFEEKQR
chain 2: IIGGSDADIKNFPWQVFFDNPWAGGALINEYWVLTAAHVVEGNREPTMYVGSTSVQTSRLAKSKMLTPEHVFIHPGWKLLEVPEGRTNFDNDIALVRLKDPVKMGPTVSPICLPGTSSDYNLMDGDLGLISGWGRTEKRDRAVRLKAARLPVAPLRKCKEVKVEKPTADAEAYVFTPNMICAGGEKGMDSCKGDSGGAFAVQDPNDKTKFYAAGLVSWGPQCGTYGLYTRVKNYVDWIMKTMQENSTPRED
- enzymatic activity (1 μg/mL C1s standard): 0.91 pmol/min/µg
- Enzymatic activity of C1s standards (6.25 μg/mL): 5.7 pmol/min/µg
- Enzymatic activity of C1s standards (12.5 μg/mL): 11.4 pmol/min/µg
- Enzymatic activity of C1s standards (25 μg/mL): 22.8 pmol/min/µg
- Enzymatic activity of C1s standards (50 μg/mL): 45.5 pmol/min/µg
- Enzymatic activity of C1s standards (100 μg/mL): 91 pmol/min/µg
- Enzymatic activity of C1s standards (200 μg/mL): 182 pmol/min/µg
